Ends that are not written are not given here. * marks the point of attachment. Palmitoyl = CCCCCCCCCCCCCCCC(=O)*
Legend:
[1] = target: T1, recombinant SERCA1a (recS1a) (Oryctolagus cuniculus, UniProt P04191); assay: Effect of SLN:SERCA1a stoichiometry on phosphorylated intermediate, recS1a; assay type: biochemical, rabbit (expressed in S. cerevisiae); settings: for EPmax (stoichiometry series), recS1a / maximum decrease of the EP level, recS1a (discussion): Fig. 4G; for SLN:SERCA1a ratio for half-inhibition, recS1a (Fig. 4H): phosphoenzyme after 20 s, dose-response with variable slope; for SLN:SERCA1a ratio for half-inhibition, recS1a (Fig. 4H) / amplitude of the inhibition of phosphoenzyme level, recS1a: mean of three independent experiments; for amplitude of the inhibition of phosphoenzyme level, recS1a: recS1a without SLN = 100%
T1 construct: BAD (biotin acceptor domain) (C, cleaved yes); made in house; host or cells: Saccharomyces cerevisiae
T1 sequence (P04191 1-994 isoform P04191-2): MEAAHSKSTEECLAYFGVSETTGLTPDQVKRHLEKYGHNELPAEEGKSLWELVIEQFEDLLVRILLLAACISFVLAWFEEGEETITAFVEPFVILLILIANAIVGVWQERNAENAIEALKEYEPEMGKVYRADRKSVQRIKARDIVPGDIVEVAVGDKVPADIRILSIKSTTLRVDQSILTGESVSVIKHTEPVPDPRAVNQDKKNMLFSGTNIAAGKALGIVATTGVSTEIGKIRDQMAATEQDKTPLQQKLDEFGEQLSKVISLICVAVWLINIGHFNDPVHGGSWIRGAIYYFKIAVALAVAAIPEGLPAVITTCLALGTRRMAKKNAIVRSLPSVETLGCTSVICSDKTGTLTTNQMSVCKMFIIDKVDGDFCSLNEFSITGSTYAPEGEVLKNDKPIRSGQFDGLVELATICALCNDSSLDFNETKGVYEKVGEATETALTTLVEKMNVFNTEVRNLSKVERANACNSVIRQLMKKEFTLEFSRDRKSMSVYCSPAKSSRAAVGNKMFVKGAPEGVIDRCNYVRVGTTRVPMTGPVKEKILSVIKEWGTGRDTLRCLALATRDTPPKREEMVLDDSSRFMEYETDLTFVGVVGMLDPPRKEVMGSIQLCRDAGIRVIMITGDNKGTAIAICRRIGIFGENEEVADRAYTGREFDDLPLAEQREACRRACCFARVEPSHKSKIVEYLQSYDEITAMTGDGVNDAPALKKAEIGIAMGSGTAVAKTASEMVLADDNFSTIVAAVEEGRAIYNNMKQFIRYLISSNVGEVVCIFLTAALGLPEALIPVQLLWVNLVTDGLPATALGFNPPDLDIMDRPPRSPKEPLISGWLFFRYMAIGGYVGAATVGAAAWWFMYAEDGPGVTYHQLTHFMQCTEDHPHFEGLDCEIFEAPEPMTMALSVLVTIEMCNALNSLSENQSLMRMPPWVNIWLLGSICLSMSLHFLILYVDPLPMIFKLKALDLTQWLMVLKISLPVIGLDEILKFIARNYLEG
Method: (§1) Transient formation of the phosphoenzyme intermediate was measured after incubation with [γ^32P]ATP followed by acid quenching, and filtration. For most experiments, 50 µL of enzyme at 10 µg/mL in a buffer containing 50 mM Tes-Tris pH7.5, 1 mM KCl, 5 mM MgCl2, 20% glycerol (w/w) and 0.5 mg/mL DDM, supplemented or not with SLN, was stored on ice. Concentrations of EGTA and calcium are specified in figure legends in order to reach the appropriate [Ca^2+]free and therefore the desired starting state for the ATPase. For kinetics of phosphorylation, we initiate reaction by addition of 2 µM [γ^32P]ATP (5 mCi/µmole), and calcium at 100 µM when specified. Reaction was quenched by addition of 2 mL of cold quenching medium (500 mM TCA + 30 mM H3P0_4) under vigorous mixing, and immediately stored on ice for 20–30 min to improve precipitation, a period of time critical for retention of the precipitate on the filter in presence of detergent. This was followed by filtration on GS filters (Millipore, Saint Quentin-Fallavier, France) and careful rinsing of the filters with diluted quenching medium (50 mM TCA + 3 mM H3P0_4). The amount of radioactivity bound to the filter was estimated by liquid scintillation counting (Perkin Elmer TriCarb Counter). When starting from a calcium-deprived state (Fig. 4C,D), EGTA was added only one minute before starting phosphorylation to limit irreversible inactivation of the solubilized ATPase, although the presence of glycerol helps in protecting the enzyme from irreversible inactivation. For dephosphorylation kinetics, 1 mM “cold” Mg.ATP was added after a 30 s period of phosphorylation. For Ca^2+-dependency, we adjust the concentration of free calcium according to the Ca.EGTA constant as mentioned above, before triggering phosphorylation. […] Phosphorylations were done at 0 °C especially for inhibition by vanadate to prevent dissociation of vanadate and limit irreversible inactivation in absence of calcium.

[2] = target: T1, recombinant SERCA1a (recS1a); assay: Kinetics of phosphorylation from [γ32P]ATP, recS1a; assay type: biochemical, rabbit (expressed in S. cerevisiae); settings: for EPmax, from calcium deprived state: Fig. 4C, mean of six (pSLN), four (SLN) replicates, recS1a alone 3.09 ± 0.10; for t1/2 of phosphorylation, from calcium deprived state: EGTA 1 min then 2 µM [γ32P]ATP and calcium, six (pSLN) or four (SLN) replicates from two independent experiments, recS1a alone 6.8, p < 0.0001; for rate of phosphorylation, from calcium deprived state: recS1a, starting from calcium-deprived state, Fig. 4C,D
Method: as §1

[3] = target: T2, DDM-solubilized SR (native SERCA1a) (Oryctolagus cuniculus, UniProt P04191); assay: Effect of SLN:SERCA1a stoichiometry on phosphorylated intermediate, DDM-solubilized SR; assay type: biochemical, rabbit; settings: for EPmax (stoichiometry series), DDM-solubilized SR / decrease of the EP level, DDM-solubilized native SERCA1a (discussion): Fig. 4G; for amplitude of the inhibition of phosphoenzyme level, DDM-solubilized SR: SR without added SLN = 100%; for amplitude of the inhibition of phosphoenzyme level, DDM-solubilized SR / SLN:SERCA1a ratio for half-inhibition, DDM-solubilized SR (Fig. 4H): mean of three independent experiments; for SLN:SERCA1a ratio for half-inhibition, DDM-solubilized SR (Fig. 4H): phosphoenzyme after 20 s, p = 0.047 pSLN vs SLN
T2 construct: DDM-solubilized native SERCA1a purification; from tissue; host or cells: rabbit skeletal muscle sarcoplasmic reticulum
T2 sequence (P04191 1-994 isoform P04191-2): as above
Method: Transient formation of the phosphoenzyme intermediate was measured after incubation with [γ^32P]ATP followed by acid quenching, and filtration. For most experiments, 50 µL of enzyme at 10 µg/mL in a buffer containing 50 mM Tes-Tris pH7.5, 1 mM KCl, 5 mM MgCl2, 20% glycerol (w/w) and 0.5 mg/mL DDM, supplemented or not with SLN, was stored on ice. Concentrations of EGTA and calcium are specified in figure legends in order to reach the appropriate [Ca^2+]free and therefore the desired starting state for the ATPase. For kinetics of phosphorylation, we initiate reaction by addition of 2 µM [γ^32P]ATP (5 mCi/µmole), and calcium at 100 µM when specified. Reaction was quenched by addition of 2 mL of cold quenching medium (500 mM TCA + 30 mM H3P0_4) under vigorous mixing, and immediately stored on ice for 20–30 min to improve precipitation, a period of time critical for retention of the precipitate on the filter in presence of detergent. This was followed by filtration on GS filters (Millipore, Saint Quentin-Fallavier, France) and careful rinsing of the filters with diluted quenching medium (50 mM TCA + 3 mM H3P0_4). The amount of radioactivity bound to the filter was estimated by liquid scintillation counting (Perkin Elmer TriCarb Counter). When starting from a calcium-deprived state (Fig. 4C,D), EGTA was added only one minute before starting phosphorylation to limit irreversible inactivation of the solubilized ATPase, although the presence of glycerol helps in protecting the enzyme from irreversible inactivation. For dephosphorylation kinetics, 1 mM “cold” Mg.ATP was added after a 30 s period of phosphorylation. For Ca^2+-dependency, we adjust the concentration of free calcium according to the Ca.EGTA constant as mentioned above, before triggering phosphorylation. […] Phosphorylations were done at 0 °C especially for inhibition by vanadate to prevent dissociation of vanadate and limit irreversible inactivation in absence of calcium. […]
resuspended in a large volume of pure water and lyophilized to evaporate most of the TFA. The rinsed powder was then suspended in presence of 10 mM HCl to exchange the anionic residual TFA that may interact with the positive charges of the peptide for chloride. This suspension was lyophilized again.
Three additional cycles of – dissolving in pure water / lyophilisation – will allow to eliminate traces of TFA and to get back to a pH compatible with functional tests. For final solubilisation of SLN in detergent, powder was then dissolved in 50% TFE and an amount of detergent to reach a 100:1 mole:mole detergent:SLN ratio. Here, we used C12E8 as it is fully compatible with functional characterization of SERCA1a 23. This suspension was then lyophilized again to evaporate TFE.
Sarcolipins (Palm-SLN or SLN) were finally resuspended at 0.8 mg/mL (about 200 µM) in a 10 mM potassium phosphate buffer pH 7.4, in the presence of 2.5 mg/mL C12E8. […]
DDM-solubilized native SERCA1a purification
SR vesicles were suspended at a concentration of 1 mg/mL in a buffer containing 50 mM MOPS-Tris pH7, 100 mM KCl, 5 mM MgCl2, 0.1 mM CaCl2, 20 % glycerol (v/v) and 10 mg/mL DDM (detergent:protein ratio 10:1 w/w), and incubated for 10 minutes at 20°C. Solubilized material was recovered after centrifugation for 10 minutes at 120,000 x g on a TLA100.3 rotor (Beckman Coulter TL100 ultracentrifuge). Supernatant was injected on a size exclusion chromatography column (Superdex 200 10/300 GL on an Akta Purifier FPLC system, GE Healthcare) equilibrated with the same buffer but now containing only 0.5 mg/mL DDM. Chromatography was performed at 4°C and at a flow rate of 0.5 mL/min. Fractions corresponding to the main peak were collected, pooled and stored at - 80°C. For further details, see 32.
Steady-state ATPase activity measurements
Measurements were performed using classical enzyme coupled assay. We measured the rate of NADH oxidation in the presence of 0.1 mg/mL lactate deshydrogenase, 0.05 mg/mL pyruvate kinase, 1 mM […]

Substance	EPmax (stoichiometry series), recS1a [1] [nmoles EP/mg ATPase]	maximum decrease of the EP level, recS1a (discussion) [1]	SLN:SERCA1a ratio for half-inhibition, recS1a (Fig. 4H) [1]	amplitude of the inhibition of phosphoenzyme level, recS1a [1] [%]	EPmax, from calcium deprived state ([2]; SLN:SERCA1a 10:1) [nmoles EP/mg ATPase]	t1/2 of phosphorylation, from calcium deprived state ([2]; SLN:SERCA1a 10:1 mol:mol) [s]	rate of phosphorylation, from calcium deprived state [2]	EPmax (stoichiometry series), DDM-solubilized SR [3] [nmoles EP/mg ATPase]	decrease of the EP level, DDM-solubilized native SERCA1a (discussion) [3]	amplitude of the inhibition of phosphoenzyme level, DDM-solubilized SR [3] [%]	SLN:SERCA1a ratio for half-inhibition, DDM-solubilized SR (Fig. 4H) [3]	EPmax, from calcium bound state ([2]; SLN:SERCA1a 10:1, Fig. 4A, average of four replicates from two independent experiments, recS1a alone 3.37 ± 0.35) [nmoles EP/mg ATPase]	t1/2 of phosphorylation, from calcium bound state (Ca2.E1) ([2]; SLN:SERCA1a 10:1 mol:mol, 2 µM [γ32P]ATP, four replicates from two independent experiments, recS1a alone 5.7, p = 0.45) [s]	rate of phosphorylation, from calcium bound state ([2]; recS1a in absence or presence of pSLN, starting from Ca2.E1)
SLN: chemically synthesized non-palmitoylated rabbit sarcolipin; in cited literature results sarcolipin in general (MERSTRELCLNFTVVLITVILIWLLVRSYQY; UniProt P42532 1-31, looked up)	2.38 ± 0.05	about 30%	4.7 ± 0.2 mol SLN added per mole of SERCA1a	28.6 ± 0.5	3.15 ± 0.05	13.7	significantly lower	3.94 ± 0.12	about 20%	19.0 ± 0.7	3.1 ± 0.3 mol SLN added per mole of SERCA1a	–	–	–
pSLN: chemically synthesized S-palmitoylated rabbit sarcolipin, 31-residue single-spanning membrane peptide, palmitoylated on Cys9 (MERSTRELC(Palmitoyl)LNFTVVLITVILIWLLVRSYQY; UniProt P42532 1-31, looked up)	2.37 ± 0.05	about 30%	5.1 ± 0.3 mol SLN added per mole of SERCA1a	31.2 ± 0.8	3.10 ± 0.09	13.5	significantly lower	4.00 ± 0.14	about 30%	28.1 ± 1.2	5.9 ± 0.6 mol SLN added per mole of SERCA1a	3.23 ± 0.37	5.1	the same
